Assay [1] has as its target T1, human CD16a (158V), full length, on cells (human, UniProt P08637 17-254). In words: cell-based or functional assay.
The target of assay [2] is T2, CD16 on primary human NK cells (human, UniProt P08637 17-254).
T2 construct: whole, on cells; also called resting NK cells
The experiment in a line: FACS on human NK cells, biotinylated antibody.

Assay [3] addresses T2, CD16 on primary human NK cells. In words: FACS on human NK cells, biotinylated antibody, +10 mg/mL human immunoglobulin.
In assay [4] the target is T3, human CD16b (NA1), full length, on FlpinCHO cells (human, UniProt O75015 17-200).
T3 construct: also called FlpinCHO-human CD16b (NA1)
T3 chain: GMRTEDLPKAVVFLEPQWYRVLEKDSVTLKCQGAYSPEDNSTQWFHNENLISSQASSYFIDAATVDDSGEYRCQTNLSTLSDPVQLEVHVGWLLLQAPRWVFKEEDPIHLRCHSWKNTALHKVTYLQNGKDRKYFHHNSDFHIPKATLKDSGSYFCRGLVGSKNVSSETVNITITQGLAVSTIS
The experiment in a line: FACS on FlpinCHO cells. The procedure, abridged:
(§1)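 Trypsin-detached FlpinCHO cells expressing full-length CD16b were blocked in PBS+2% BSA and incubated on ice for 1 hour with antibody at varying concentrations. Binding read by flow cytometry as MFI; EC50 from curve fitting.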

Assay [5] concerns the target T4, human CD16b (NA2), full length, on FlpinCHO cells (human, UniProt O75015 17-200).
T4 construct: also called FlpinCHO-human CD16b (NA2)
T4 chain: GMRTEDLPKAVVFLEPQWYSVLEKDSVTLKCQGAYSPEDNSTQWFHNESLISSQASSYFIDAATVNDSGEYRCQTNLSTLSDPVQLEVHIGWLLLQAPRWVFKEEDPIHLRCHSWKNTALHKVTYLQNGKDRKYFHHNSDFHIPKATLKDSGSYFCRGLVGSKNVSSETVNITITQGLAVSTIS
The experiment in a line: FACS on FlpinCHO cells. In outline:
as §1

For assay [6], the target named is T5, Human CD16a (158F)-his (human).
T5 construct: entry holds ECD, AVI tag, linker and His tag
In words: SPR (Biacore), antibody captured on Protein A. In outline:
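Protein A–captured antibody was probed with CD16-his ECD in HBS-EP+ at 25 °C: five 2-fold dilutions from 200 nM, 240 s at 30 μL/min, dissociation up to 600 s. Glycine pH 1.5 regenerated the chip. Apparent KD came from a double-referenced 1:1 Langmuir fit.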

The target in assay [7] is T1, human CD16a (158V), full length, on …. In words: FACS on FlpinCHO cells.
The target in assay [8] is human CD16a (158F), full length, on FlpinCHO cells (human, UniProt P08637 17-254). In words: FACS on FlpinCHO cells.
Assay [9] concerns the target T6, cynomolgus monkey CD16, full length, on FlpinCHO cells (cynomolgus monkey, UniProt Q8SPW2 17-254).
T6 construct: also called FlpinCHO-cyno CD16; Flipin CHO-cyno CD16
The experiment in a line: FACS on FlpinCHO cells. As to the method:
The required cells were scale-up cultured in a T-75 cell culture flask to the logarithmic growth phase. The medium was aspirated, and the cells were washed twice with a PBS buffer and then digested with trypsin. After the digestion was terminated, the cells were washed twice with the PBS buffer. The cells were counted, and then the cell pellet was resuspended with a [PBS+2% (w/w) BSA] blocking solution to 2×10⁶ cells/ml, and added to a 96-well FACS reaction plate at 50 μl/well. […] 50 μl/well of the antibody to be detected was added at different concentrations, and incubated on ice for 1 hour. […] The mixture was centrifuged and washed 5 times with PBS, and FACS (FACS Canto II, purchased from BD Company) was used for detection and result analysis. Data analysis was performed by software (CellQuest) to obtain the mean fluorescence intensity (MFI) of the cells. Then, software (GraphPad Prism8) was used for analysis, data fitting and EC50 value calculation.
Flipin CHO-cyno CD16 cells were subjected to FACS detection and data analysis according to the method of Example 3.1.

Four molecules from US20240343811A1 (SHANDONG SIMCERE BIOPHARMACUTICAL, published 2024) can be followed below.

T6 sequence (Q8SPW2 other isoform, or with tags, fused parts or gaps limits assumed): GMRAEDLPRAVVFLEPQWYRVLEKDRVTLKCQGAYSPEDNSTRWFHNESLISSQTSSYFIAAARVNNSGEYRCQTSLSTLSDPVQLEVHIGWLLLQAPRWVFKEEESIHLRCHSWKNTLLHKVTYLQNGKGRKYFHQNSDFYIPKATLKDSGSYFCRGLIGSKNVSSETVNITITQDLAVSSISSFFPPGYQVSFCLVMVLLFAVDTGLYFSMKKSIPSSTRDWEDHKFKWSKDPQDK

B1: VHH12-05 humanized VHH-Fc antibody (Fc fusion)
chain: EVQLVESGGGLVQPGGSLRLSCAASGITFSSYAMGWYRQAPGKQRELVAAINRFGLTNYVDSVKGRFTISRVNAKNSLYLQMNSLRAEDTAVYYCNTGGVYSHPDYYTGTYWGQGTMVTVSSEPKSSDKTHTCPPCPAPEEFGGPSVFLFPPKPKDTLMISRTPEVTCVVVAVSHEDPEVKFNWYVDGVEVHNAKTKPREEQYNSTYRVVSVLTVLHQDWLNGKEYKCKVSNKALPAPIEKTISKAKGQPREPQVYTLPPSREEMTKNQVSLTCLVKGFYPSDIAVEWESNGQPENNYKTTPPVLDSDGSFFLYSKLTVDKSRWQQGNVFSCSVMHEALHNHYTQKSLSLSPGK
The term EC50 denotes the concentration that produces a half-maximal response. In general, Kd refers to a measure of binding affinity in units of concentration. For orientation: koff means the rate constant with which the complex falls apart. As usually defined, the kon is the rate constant with which the complex forms. As for B1, the “EC50, activation activity for Jurkat cell” value (“EC50, activation activity” for short) in assay [1] was determined as 0.01 nM. The molecule further displayed a Maximum fluorescence value in assay [1] of 122000. In addition, the EC50 worked out at 0.65 nM in assay [2]; 2.48 nM in assay [3]; 0.95 nM in [4]; 0.41 nM in assay [7]; 0.35 nM in [8]; 0.55 nM in [9]. Moreover, the “Maximum mean fluorescence intensity” value came to 70400 in assay [2]; 72100 in assay [3]; 48200 in assay [4]; 74000 in assay [5]; 8130 in assay [7]; 9340 in assay [8]. Also, the “Maximum mean fluorescence intensity” value in assay [9] was determined as 18300. In assay [6], this molecule showed a Kd of 53.9 nM. This molecule had a koff in assay [6] of 0.0208 s⁻¹. This molecule displayed a kon in [6] of 385000 M⁻¹ s⁻¹.

B2: VHH12-06 humanized VHH-Fc antibody (Fc fusion)
chain: EVQLVESGGGLVQPGGSLRLSCAASGITFSSYAMGWYRQAPGKQRELVAAINRFGLTNYVDSVKGRFTISRDNAKNSVYLQMNSLRAEDTAVYYCNTGGVYSHPDYYTGTYWGQGTMVTVSSEPKSSDKTHTCPPCPAPEEFGGPSVFLFPPKPKDTLMISRTPEVTCVVVAVSHEDPEVKFNWYVDGVEVHNAKTKPREEQYNSTYRVVSVLTVLHQDWLNGKEYKCKVSNKALPAPIEKTISKAKGQPREPQVYTLPPSREEMTKNQVSLTCLVKGFYPSDIAVEWESNGQPENNYKTTPPVLDSDGSFFLYSKLTVDKSRWQQGNVFSCSVMHEALHNHYTQKSLSLSPGK
B2: in [1], the “EC50, activation activity” value was determined as 0.02 nM. Besides, the Maximum fluorescence value in [1] was 158000. Moreover, the EC50 in assay [2] was determined as 0.53 nM; in [3], 1.69 nM; in [4], 1.94 nM; in assay [7], 0.64 nM; in assay [8], 0.6 nM; in [9], 0.83 nM. Moreover, the “Maximum mean fluorescence intensity” value in [2] came to 39300; in assay [3] it was 38100; in assay [4], 40600; in [5], 69800; in assay [7] it was 7550; in assay [8], 8770. Besides, the “Maximum mean fluorescence intensity” value in [9] was 18600. Also, the Kd in assay [6] was 27.6 nM. The koff in [6] is 0.0164 s⁻¹. Besides, the kon in assay [6] was 592000 M⁻¹ s⁻¹.

B3: VHH06-04 humanized VHH-Fc antibody (Fc fusion)
chain: EVQLVESGGGVVQPGGSLRLSCAASGSTWTTYAVRWYRQAPGKQREWVAFISVDGSTNYPDSVKGRFTISRDNSKNTVYLQMNSLRAEDTADYICRVGGQYWGQGTMVTVSSEPKSSDKTHTCPPCPAPEEFGGPSVFLFPPKPKDTLMISRTPEVTCVVVAVSHEDPEVKFNWYVDGVEVHNAKTKPREEQYNSTYRVVSVLTVLHQDWLNGKEYKCKVSNKALPAPIEKTISKAKGQPREPQVYTLPPSREEMTKNQVSLTCLVKGFYPSDIAVEWESNGQPENNYKTTPPVLDSDGSFFLYSKLTVDKSRWQQGNVFSCSVMHEALHNHYTQKSLSLSPGK
Regarding B3, in assay [1], the “EC50, activation activity” value came to 0.02 nM and the Maximum fluorescence value came out at 159000. In assay [2], the EC50 came to 1.34 nM and the “Maximum mean fluorescence intensity” value worked out at 61800. In assay [3], the EC50 was found to be 3.99 nM and the “Maximum mean fluorescence intensity” value is 71400. In addition, in assay [4], the EC50 amounted to 0.32 nM and the “Maximum mean fluorescence intensity” value was 53000. In [5], the “Maximum mean fluorescence intensity” value stood at 437 and the binding result is “no binding (tested: 100 nM)”. Moreover, in [6], binding was characterised by a dissociation constant (Kd) of 9.8 nM, the koff is 0.000467 s⁻¹ and the kon amounted to 47700 M⁻¹ s⁻¹. In assay [7], the EC50 is 0.4 nM and the “Maximum mean fluorescence intensity” value was found to be 8890. In assay [8], the midpoint of the response, the EC50, lay at 0.39 nM and the “Maximum mean fluorescence intensity” value worked out at 9570.

B4: VHH06-05 humanized VHH-Fc antibody (Fc fusion)
chain: EVQLVESGGGVVQPGGSLRLSCAASGSTWTTYAVRWYRQAPGKQREWVAFISVDGSTNYADSVKGRFTISRDNAKNTVYLQMNSLRAEDTADYICRVGGQYWGQGTMVTVSSEPKSSDKTHTCPPCPAPEEFGGPSVFLFPPKPKDTLMISRTPEVTCVVVAVSHEDPEVKFNWYVDGVEVHNAKTKPREEQYNSTYRVVSVLTVLHQDWLNGKEYKCKVSNKALPAPIEKTISKAKGQPREPQVYTLPPSREEMTKNQVSLTCLVKGFYPSDIAVEWESNGQPENNYKTTPPVLDSDGSFFLYSKLTVDKSRWQQGNVFSCSVMHEALHNHYTQKSLSLSPGK
For B4, in assay [1], the “EC50, activation activity” value was 0.03 nM and the Maximum fluorescence value worked out at 176000. Also, in assay [2], the EC50 amounted to 1.33 nM and the “Maximum mean fluorescence intensity” value stood at 53900. Further, in assay [3], the EC50 was 3.66 nM and the “Maximum mean fluorescence intensity” value worked out at 64900. Moreover, in assay [4], the EC50 came out at 0.18 nM and the “Maximum mean fluorescence intensity” value was 55200. In assay [5], the “Maximum mean fluorescence intensity” value is 296 and the binding result was “no binding (tested: 100 nM)”. In assay [6], this molecule registered a Kd of 26.9 nM, a koff of 0.00109 s⁻¹ and a kon of 40300 M⁻¹ s⁻¹. For the same molecule, in [7], the EC50 is 0.23 nM and the “Maximum mean fluorescence intensity” value was found to be 8840. In assay [8], the EC50 stood at 0.27 nM and the “Maximum mean fluorescence intensity” value is 8890.
